From patent US20220362145A1, “THERAPEUTIC HYDROGEL COMPOSITIONS” (THE UNIVERSITY OF BIRMINGHAM, priority 2018, published 2022)

B1: Proteinase K: extracellular matrix remodelling agent proteinase K (protein, UniProt P06873 106-384, looked up)
Proteinase K: AAQTNAPWGLARISSTSPGTSTYYYDESAGQGSCVYVIDTGIEASHPEFEGRAQMVKTYYYSSRDGNGHGTHCAGTVGSRTYGVAKKTQLFGVKVLDDNGSGQYSTIIAGMDFVASDKNNRNCPKGVVASLSLGGGYSSSVNSAAARLQSSGVMVAVAAGNNNADARNYSPASEPSVCTVGASDRYDRRSSFSNYGSVLDIFGPGTSILSTWIGGSTRSISGTSMATPHVAGLAAYLMTLGKTTAASACRYIADTANKGDLSNIPFGTVNLLAYNNYQA
B2: hrDecorin: human recombinant decorin sold by Catalent Pharma Solutions under the name Galacorin™ (protein, UniProt P07585 31-359, looked up)
Decorin: DEASGIGPEVPDDRDFEPSLGPVCPFRCQCHLRVVQCSDLGLDKVPKDLPPDTTLLDLQNNKITEIKDGDFKNLKNLHALILVNNKISKVSPGAFTPLVKLERLYLSKNQLKELPEKMPKTLQELRAHENEITKVRKVTFNGLNQMIVIELGTNPLKSSGIENGAFQGMKKLSYIRIADTNITSIPQGLPPSLTELHLDGNKISRVDAASLKGLNNLAKLGLSFNSISAVDNGSLANTPHLRELHLDNNKLTRVPGGLAEHKYIQVVYLHNNNISVVGSSDFCPPGHNTKKASYSGVSLFSNPVQYWEIQPSTFRCVYVRSAIQLGNYK

Assays:
fibrin gel = assay: Matrix breakdown assay (fibrin gel); format: biochemical; details: trans-well above fibrin gel (8.5 mg/ml), 60° C.
Method: […] • Add 0.9 ml of gel to an Eppendorf. • To each gel add 0.1 ml of active in PBS. • Mix well using a vortex mixer. • Refrigerate for 24 hours before testing. • 0.5 ml of fibrin gel (8.5 mg/ml) was formed in the wells of a 24 well plate. • 0.5 ml of PBS was added to each well. • 0.1 ml of gel with active was added to a trans-well insert and placed above the fibrin gel. • Samples were incubated at 60° C. to activate the proteinase K. • Images were taken at various timepoints and compared to the control fibrin gel (pbs only) and fibrin gel with proteinase k added without a fluid gel carrier.

[1] = molecular target: T1, collagen type I (rat tail) (Rattus norvegicus, UniProt P02454+P02466); assay: Collagen fibrillogenesis turbidity assay; format: biochemical
T1 construct: collagen type I (rat tail; Corning, UK); purchased Corning, UK; host or cells: rat tail (tissue-derived)
T1 sequence (P02454 152-1207 limits assumed): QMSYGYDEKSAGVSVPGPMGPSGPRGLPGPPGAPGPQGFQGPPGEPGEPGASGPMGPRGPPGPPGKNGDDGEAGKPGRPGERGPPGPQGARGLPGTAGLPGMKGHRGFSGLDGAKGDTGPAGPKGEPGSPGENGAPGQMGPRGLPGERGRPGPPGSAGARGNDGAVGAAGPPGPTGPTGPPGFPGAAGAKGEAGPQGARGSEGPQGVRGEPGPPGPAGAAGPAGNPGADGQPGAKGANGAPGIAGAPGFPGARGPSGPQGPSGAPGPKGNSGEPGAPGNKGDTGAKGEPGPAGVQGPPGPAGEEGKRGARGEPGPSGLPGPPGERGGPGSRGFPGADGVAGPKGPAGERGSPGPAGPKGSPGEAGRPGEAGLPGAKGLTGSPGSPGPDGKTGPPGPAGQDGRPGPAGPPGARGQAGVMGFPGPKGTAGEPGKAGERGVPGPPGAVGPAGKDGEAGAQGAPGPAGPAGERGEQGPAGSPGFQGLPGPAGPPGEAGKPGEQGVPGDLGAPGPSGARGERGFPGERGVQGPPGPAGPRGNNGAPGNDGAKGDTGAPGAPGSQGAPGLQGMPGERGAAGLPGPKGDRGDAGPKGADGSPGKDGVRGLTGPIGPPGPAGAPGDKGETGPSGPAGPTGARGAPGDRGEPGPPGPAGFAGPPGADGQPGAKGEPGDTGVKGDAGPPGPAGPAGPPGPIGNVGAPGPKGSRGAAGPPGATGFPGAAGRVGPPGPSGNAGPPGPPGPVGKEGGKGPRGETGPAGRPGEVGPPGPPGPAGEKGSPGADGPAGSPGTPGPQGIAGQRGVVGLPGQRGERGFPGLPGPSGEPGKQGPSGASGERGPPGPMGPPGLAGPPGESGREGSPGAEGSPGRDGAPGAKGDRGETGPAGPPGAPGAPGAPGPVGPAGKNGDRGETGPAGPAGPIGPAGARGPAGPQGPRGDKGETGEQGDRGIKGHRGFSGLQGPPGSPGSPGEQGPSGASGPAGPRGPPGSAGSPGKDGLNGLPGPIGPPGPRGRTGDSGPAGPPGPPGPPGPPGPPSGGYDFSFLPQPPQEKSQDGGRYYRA
T1 sequence (P02466 86-1125 limits assumed): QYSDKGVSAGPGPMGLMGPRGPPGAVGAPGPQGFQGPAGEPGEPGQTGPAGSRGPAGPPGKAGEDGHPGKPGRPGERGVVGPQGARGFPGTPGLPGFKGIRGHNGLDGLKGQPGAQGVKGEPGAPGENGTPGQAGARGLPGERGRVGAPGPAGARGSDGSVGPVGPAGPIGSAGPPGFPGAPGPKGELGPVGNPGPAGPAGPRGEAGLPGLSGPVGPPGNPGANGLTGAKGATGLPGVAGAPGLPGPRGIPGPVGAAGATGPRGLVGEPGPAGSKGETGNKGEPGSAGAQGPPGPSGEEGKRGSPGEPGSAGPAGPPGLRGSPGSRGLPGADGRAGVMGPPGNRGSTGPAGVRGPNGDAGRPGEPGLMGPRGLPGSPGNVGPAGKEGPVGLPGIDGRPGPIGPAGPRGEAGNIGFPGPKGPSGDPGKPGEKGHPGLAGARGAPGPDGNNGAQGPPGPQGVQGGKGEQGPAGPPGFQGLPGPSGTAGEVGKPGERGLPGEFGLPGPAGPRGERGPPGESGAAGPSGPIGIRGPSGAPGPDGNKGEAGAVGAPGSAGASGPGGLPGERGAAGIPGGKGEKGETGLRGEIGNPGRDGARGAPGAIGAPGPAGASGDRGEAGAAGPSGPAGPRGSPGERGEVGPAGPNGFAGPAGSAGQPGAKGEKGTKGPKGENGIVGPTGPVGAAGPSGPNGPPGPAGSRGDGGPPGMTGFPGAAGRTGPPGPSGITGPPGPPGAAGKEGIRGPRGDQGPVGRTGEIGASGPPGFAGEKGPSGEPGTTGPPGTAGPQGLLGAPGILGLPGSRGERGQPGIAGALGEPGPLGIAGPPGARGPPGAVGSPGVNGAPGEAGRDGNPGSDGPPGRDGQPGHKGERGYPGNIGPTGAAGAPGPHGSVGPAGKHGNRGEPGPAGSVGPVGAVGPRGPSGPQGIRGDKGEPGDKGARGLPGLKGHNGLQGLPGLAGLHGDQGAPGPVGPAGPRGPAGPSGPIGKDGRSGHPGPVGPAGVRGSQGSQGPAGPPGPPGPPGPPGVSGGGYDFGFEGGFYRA
Method: Collagen fibrillogenesis: For the dose response curves, 75 µl of PBS was added to each well of a 96 well plate kept on ice. Varying hrDecorin doses were prepared by adding 400 μg/ml of hrDecorin to the first well and subsequently serial diluting (2-fold dilution) across the plate. Following dilution, a further 150 μl of PBS buffer was added to each well. Then, 75 μl of collagen type I (rat tail; Corning, UK) (800 μg/ml) was added to each well and incubated for 2 hours at 37° C. Subsequent absorbance readings were taken using a 405 nm plate reader. Each assay consisted of duplicate blank controls, and triplicate standard dilutions followed by triplicate sample dilutions. Kinetics of fibril formation were determined using a similar setup as the dose response, without serial dilution; incubating the samples within the plate reader, and taking data points every 2 minutes.
• Prepare diluent and reaction buffers by mixing sodium phosphate and sodium chloride and adjusting the pH to 7.4. • Add sample (Gellan fluid gel +Galacorin™ Galacorin only and Gellan only) to a 96 well plate and serial dilute using diluent buffer across the rows of the plate. • On ice, prepare collagen by mixing with cold water to a concentration of 0.8 mg/ml. • Add collagen to all wells. • Add reaction buffer to all wells and mix. • Incubate at 37° C. for 2 hours. • Read using a plate reader at 405 nm

Molecule | breakdown of fibrin gel (fibrin gel) | effect on collagen fibrillogenesis (fibril formation) ([1]; turbidity at 405 nm vs collagen only control) | critical concentration above which fibrillogenesis is inhibited ([1]; turbidity at 405 nm, 2 hours at 37° C.) [μg/ml] | concentration at which minimum turbidity is achieved ([1]; turbidity at 405 nm, no further reduction above) [ng/mL]
B1 | faster |  |  | 
B2 |  | slowing the onset of fibrillogenesis | 0.5 | > 10000
